{
  "source": "paper PMC10104521",
  "about": "(Proceedings of the National Academy of Sciences of the …, 2023)",
  "key": {"[1]": {"target": "T1, geranylgeranylated GBP5 (guanylate-binding protein 5) (human), Q96PP8", "T1 chain": "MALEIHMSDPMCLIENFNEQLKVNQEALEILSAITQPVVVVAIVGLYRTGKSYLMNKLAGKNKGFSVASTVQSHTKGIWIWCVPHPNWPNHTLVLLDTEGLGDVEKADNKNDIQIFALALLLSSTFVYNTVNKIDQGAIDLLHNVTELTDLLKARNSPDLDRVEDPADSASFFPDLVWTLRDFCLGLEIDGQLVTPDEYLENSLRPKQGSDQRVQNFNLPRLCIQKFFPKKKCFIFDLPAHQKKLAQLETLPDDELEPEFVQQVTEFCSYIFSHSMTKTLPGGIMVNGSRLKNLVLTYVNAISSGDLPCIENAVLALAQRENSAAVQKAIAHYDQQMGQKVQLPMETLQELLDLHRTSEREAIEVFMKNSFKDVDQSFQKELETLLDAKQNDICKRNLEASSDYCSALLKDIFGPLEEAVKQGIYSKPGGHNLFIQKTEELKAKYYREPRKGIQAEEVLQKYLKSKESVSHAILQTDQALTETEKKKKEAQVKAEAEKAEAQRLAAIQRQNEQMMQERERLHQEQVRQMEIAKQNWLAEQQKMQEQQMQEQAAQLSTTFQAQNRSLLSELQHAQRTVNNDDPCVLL", "assay": "dynamic light scattering", "conditions": "remark: other sources report otherwise"}, "[2]": {"target": "T2, nonfarnesylated GBP1 (human), P32455", "T2 chain": "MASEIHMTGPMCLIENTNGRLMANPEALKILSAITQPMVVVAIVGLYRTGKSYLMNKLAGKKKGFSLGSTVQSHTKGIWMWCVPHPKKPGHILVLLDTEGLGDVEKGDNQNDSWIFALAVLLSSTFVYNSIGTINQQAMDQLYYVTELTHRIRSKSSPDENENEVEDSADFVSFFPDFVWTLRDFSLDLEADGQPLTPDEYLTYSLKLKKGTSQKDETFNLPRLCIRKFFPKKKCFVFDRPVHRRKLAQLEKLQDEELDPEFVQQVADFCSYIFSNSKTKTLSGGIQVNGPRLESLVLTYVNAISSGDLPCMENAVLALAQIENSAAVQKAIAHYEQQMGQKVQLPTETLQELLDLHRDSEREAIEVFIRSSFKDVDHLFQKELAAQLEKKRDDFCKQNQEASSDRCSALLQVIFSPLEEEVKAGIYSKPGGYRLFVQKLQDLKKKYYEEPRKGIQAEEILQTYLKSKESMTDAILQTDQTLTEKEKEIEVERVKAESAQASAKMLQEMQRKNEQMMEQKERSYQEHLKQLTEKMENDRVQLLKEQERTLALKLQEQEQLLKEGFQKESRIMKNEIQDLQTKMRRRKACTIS", "assay": "dynamic light scattering", "conditions": "remark: other sources report otherwise"}, "[3]": {"target": "T3, nongeranylgeranylated GBP5 (human), Q96PP8", "T3 chain": "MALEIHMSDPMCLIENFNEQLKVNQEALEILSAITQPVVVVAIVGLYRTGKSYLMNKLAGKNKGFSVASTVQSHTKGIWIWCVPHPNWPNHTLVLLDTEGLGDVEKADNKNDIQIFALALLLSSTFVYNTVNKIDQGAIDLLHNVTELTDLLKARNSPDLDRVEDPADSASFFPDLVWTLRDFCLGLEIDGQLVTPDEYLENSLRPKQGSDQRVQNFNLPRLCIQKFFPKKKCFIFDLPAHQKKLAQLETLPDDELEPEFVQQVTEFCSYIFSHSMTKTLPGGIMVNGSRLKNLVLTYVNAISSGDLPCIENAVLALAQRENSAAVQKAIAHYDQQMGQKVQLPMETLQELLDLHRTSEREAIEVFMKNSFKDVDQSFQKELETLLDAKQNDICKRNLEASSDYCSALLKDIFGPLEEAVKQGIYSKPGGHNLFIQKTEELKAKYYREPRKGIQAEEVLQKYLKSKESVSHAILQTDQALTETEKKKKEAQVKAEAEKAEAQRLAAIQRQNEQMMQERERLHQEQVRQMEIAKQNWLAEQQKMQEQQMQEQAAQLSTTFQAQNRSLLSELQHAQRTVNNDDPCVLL", "assay": "dynamic light scattering", "conditions": "remark: other sources report otherwise"}, "[4]": {"target": "the molecule itself", "assay": "dynamic light scattering"}, "[5]": {"target": "T4, farnesylated GBP1 (guanylate-binding protein 1) (human, UniProt P32455 1-592, C-terminal farnesyl moiety)", "T4 sequence": "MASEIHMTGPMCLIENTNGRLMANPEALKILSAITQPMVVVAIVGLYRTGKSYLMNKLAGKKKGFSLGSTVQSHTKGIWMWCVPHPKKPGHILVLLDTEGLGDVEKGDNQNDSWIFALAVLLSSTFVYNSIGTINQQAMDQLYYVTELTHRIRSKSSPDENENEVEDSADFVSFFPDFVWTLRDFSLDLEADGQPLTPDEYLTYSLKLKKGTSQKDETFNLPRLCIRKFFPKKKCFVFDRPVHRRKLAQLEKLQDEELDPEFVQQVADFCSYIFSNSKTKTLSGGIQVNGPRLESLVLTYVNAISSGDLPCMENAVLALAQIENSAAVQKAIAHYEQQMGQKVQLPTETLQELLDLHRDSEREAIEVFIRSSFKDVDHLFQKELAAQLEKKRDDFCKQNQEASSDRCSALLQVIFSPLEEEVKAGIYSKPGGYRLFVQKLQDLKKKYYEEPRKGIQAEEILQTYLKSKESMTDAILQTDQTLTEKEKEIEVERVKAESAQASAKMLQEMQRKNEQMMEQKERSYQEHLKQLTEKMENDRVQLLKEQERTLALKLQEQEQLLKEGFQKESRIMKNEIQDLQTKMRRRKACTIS", "assay": "UV-absorbance-based light scattering"}},
  "data": [
    {"binder": "geranylgeranylated GBP5 (guanylate-binding protein 5), Q96PP8 1-586 (natural protein, here or on the partner: C-terminal geranylgeranyl moiety; C-terminal geranylgeranyl moiety) MALEIHMSDPMCLIENFNEQLKVNQEALEILSAITQPVVVVAIVGLYRTGKSYLMNKLAGKNKGFSVASTVQSHTKGIWIWCVPHPNWPNHTLVLLDTEGLGDVEKADNKNDIQIFALALLLSSTFVYNTVNKIDQGAIDLLHNVTELTDLLKARNSPDLDRVEDPADSASFFPDLVWTLRDFCLGLEIDGQLVTPDEYLENSLRPKQGSDQRVQNFNLPRLCIQKFFPKKKCFIFDLPAHQKKLAQLETLPDDELEPEFVQQVTEFCSYIFSHSMTKTLPGGIMVNGSRLKNLVLTYVNAISSGDLPCIENAVLALAQRENSAAVQKAIAHYDQQMGQKVQLPMETLQELLDLHRTSEREAIEVFMKNSFKDVDQSFQKELETLLDAKQNDICKRNLEASSDYCSALLKDIFGPLEEAVKQGIYSKPGGHNLFIQKTEELKAKYYREPRKGIQAEEVLQKYLKSKESVSHAILQTDQALTETEKKKKEAQVKAEAEKAEAQRLAAIQRQNEQMMQERERLHQEQVRQMEIAKQNWLAEQQKMQEQQMQEQAAQLSTTFQAQNRSLLSELQHAQRTVNNDDPCVLL", "values": [
      {"measurement": "stoichiometry N", "setting": "[1]", "result": 2}
    ]},
    {"binder": "nonfarnesylated GBP1, P32455 1-592 (natural protein) MASEIHMTGPMCLIENTNGRLMANPEALKILSAITQPMVVVAIVGLYRTGKSYLMNKLAGKKKGFSLGSTVQSHTKGIWMWCVPHPKKPGHILVLLDTEGLGDVEKGDNQNDSWIFALAVLLSSTFVYNSIGTINQQAMDQLYYVTELTHRIRSKSSPDENENEVEDSADFVSFFPDFVWTLRDFSLDLEADGQPLTPDEYLTYSLKLKKGTSQKDETFNLPRLCIRKFFPKKKCFVFDRPVHRRKLAQLEKLQDEELDPEFVQQVADFCSYIFSNSKTKTLSGGIQVNGPRLESLVLTYVNAISSGDLPCMENAVLALAQIENSAAVQKAIAHYEQQMGQKVQLPTETLQELLDLHRDSEREAIEVFIRSSFKDVDHLFQKELAAQLEKKRDDFCKQNQEASSDRCSALLQVIFSPLEEEVKAGIYSKPGGYRLFVQKLQDLKKKYYEEPRKGIQAEEILQTYLKSKESMTDAILQTDQTLTEKEKEIEVERVKAESAQASAKMLQEMQRKNEQMMEQKERSYQEHLKQLTEKMENDRVQLLKEQERTLALKLQEQEQLLKEGFQKESRIMKNEIQDLQTKMRRRKACTIS", "values": [
      {"measurement": "stoichiometry N", "setting": "[2]", "result": 2}
    ]},
    {"binder": "nongeranylgeranylated GBP5, Q96PP8 1-586 (natural protein) MALEIHMSDPMCLIENFNEQLKVNQEALEILSAITQPVVVVAIVGLYRTGKSYLMNKLAGKNKGFSVASTVQSHTKGIWIWCVPHPNWPNHTLVLLDTEGLGDVEKADNKNDIQIFALALLLSSTFVYNTVNKIDQGAIDLLHNVTELTDLLKARNSPDLDRVEDPADSASFFPDLVWTLRDFCLGLEIDGQLVTPDEYLENSLRPKQGSDQRVQNFNLPRLCIQKFFPKKKCFIFDLPAHQKKLAQLETLPDDELEPEFVQQVTEFCSYIFSHSMTKTLPGGIMVNGSRLKNLVLTYVNAISSGDLPCIENAVLALAQRENSAAVQKAIAHYDQQMGQKVQLPMETLQELLDLHRTSEREAIEVFMKNSFKDVDQSFQKELETLLDAKQNDICKRNLEASSDYCSALLKDIFGPLEEAVKQGIYSKPGGHNLFIQKTEELKAKYYREPRKGIQAEEVLQKYLKSKESVSHAILQTDQALTETEKKKKEAQVKAEAEKAEAQRLAAIQRQNEQMMQERERLHQEQVRQMEIAKQNWLAEQQKMQEQQMQEQAAQLSTTFQAQNRSLLSELQHAQRTVNNDDPCVLL", "values": [
      {"measurement": "stoichiometry N", "setting": "[3]", "result": 2}
    ]},
    {"binder": "geranylgeranylated GBP2 (guanylate-binding protein 2) (natural protein, human, UniProt P32456 1-591, looked up, C-terminal geranylgeranyl moiety) MAPEINLPGPMSLIDNTKGQLVVNPEALKILSAITQPVVVVAIVGLYRTGKSYLMNKLAGKKNGFSLGSTVKSHTKGIWMWCVPHPKKPEHTLVLLDTEGLGDIEKGDNENDSWIFALAILLSSTFVYNSMGTINQQAMDQLHYVTELTDRIKANSSPGNNSVDDSADFVSFFPAFVWTLRDFTLELEVDGEPITADDYLELSLKLRKGTDKKSKSFNDPRLCIRKFFPKRKCFVFDWPAPKKYLAHLEQLKEEELNPDFIEQVAEFCSYILSHSNVKTLSGGIPVNGPRLESLVLTYVNAISSGDLPCMENAVLALAQIENSAAVEKAIAHYEQQMGQKVQLPTETLQELLDLHRDSEREAIEVFMKNSFKDVDQMFQRKLGAQLEARRDDFCKQNSKASSDCCMALLQDIFGPLEEDVKQGTFSKPGGYRLFTQKLQELKNKYYQVPRKGIQAKEVLKKYLESKEDVADALLQTDQSLSEKEKAIEVERIKAESAEAAKKMLEEIQKKNEEMMEQKEKSYQEHVKQLTEKMERDRAQLMAEQEKTLALKLQEQERLLKEGFENESKRLQKDIWDIQMRSKSLEPICNIL", "values": [
      {"measurement": "binding result", "setting": "[4]", "result": "binds"},
      {"measurement": "binding result", "setting": "[5]", "result": "binds"}
    ]},
    {"binder": "geranylgeranylated GBP5 (guanylate-binding protein 5) (natural protein, human, UniProt Q96PP8 1-586, looked up, C-terminal geranylgeranyl moiety) MALEIHMSDPMCLIENFNEQLKVNQEALEILSAITQPVVVVAIVGLYRTGKSYLMNKLAGKNKGFSVASTVQSHTKGIWIWCVPHPNWPNHTLVLLDTEGLGDVEKADNKNDIQIFALALLLSSTFVYNTVNKIDQGAIDLLHNVTELTDLLKARNSPDLDRVEDPADSASFFPDLVWTLRDFCLGLEIDGQLVTPDEYLENSLRPKQGSDQRVQNFNLPRLCIQKFFPKKKCFIFDLPAHQKKLAQLETLPDDELEPEFVQQVTEFCSYIFSHSMTKTLPGGIMVNGSRLKNLVLTYVNAISSGDLPCIENAVLALAQRENSAAVQKAIAHYDQQMGQKVQLPMETLQELLDLHRTSEREAIEVFMKNSFKDVDQSFQKELETLLDAKQNDICKRNLEASSDYCSALLKDIFGPLEEAVKQGIYSKPGGHNLFIQKTEELKAKYYREPRKGIQAEEVLQKYLKSKESVSHAILQTDQALTETEKKKKEAQVKAEAEKAEAQRLAAIQRQNEQMMQERERLHQEQVRQMEIAKQNWLAEQQKMQEQQMQEQAAQLSTTFQAQNRSLLSELQHAQRTVNNDDPCVLL", "values": [
      {"measurement": "binding result", "setting": "[5]", "result": "binds"}
    ]},
    {"binder": "nongeranylgeranylated GBP2 (natural protein, human, UniProt P32456 1-591, looked up) MAPEINLPGPMSLIDNTKGQLVVNPEALKILSAITQPVVVVAIVGLYRTGKSYLMNKLAGKKNGFSLGSTVKSHTKGIWMWCVPHPKKPEHTLVLLDTEGLGDIEKGDNENDSWIFALAILLSSTFVYNSMGTINQQAMDQLHYVTELTDRIKANSSPGNNSVDDSADFVSFFPAFVWTLRDFTLELEVDGEPITADDYLELSLKLRKGTDKKSKSFNDPRLCIRKFFPKRKCFVFDWPAPKKYLAHLEQLKEEELNPDFIEQVAEFCSYILSHSNVKTLSGGIPVNGPRLESLVLTYVNAISSGDLPCMENAVLALAQIENSAAVEKAIAHYEQQMGQKVQLPTETLQELLDLHRDSEREAIEVFMKNSFKDVDQMFQRKLGAQLEARRDDFCKQNSKASSDCCMALLQDIFGPLEEDVKQGTFSKPGGYRLFTQKLQELKNKYYQVPRKGIQAKEVLKKYLESKEDVADALLQTDQSLSEKEKAIEVERIKAESAEAAKKMLEEIQKKNEEMMEQKEKSYQEHVKQLTEKMERDRAQLMAEQEKTLALKLQEQERLLKEGFENESKRLQKDIWDIQMRSKSLEPICNIL", "values": [
      {"measurement": "stoichiometry N", "setting": "[4]", "result": 2}
    ]}
  ]
}
